Reference: patent US20220135977

target: Influenza A/H3N2 virus strain Ark1819002 (clade 3C.2a; virus protein quantified as hemagglutinin) (Influenza A virus (H3N2)) (UniProt P03437+P03437); test: filter; conditions: not given

| Sequence | binding signal [amol bound] |
| --- | --- |
| GGGAGAAUUCCGACCAGAAGUAGUAGCCCGGGUGUGGGUUUAUGGCCGCCCCUUUCCUCUCUCCUUCCUCUUCU [P30-10-h1-6] | 34.2 |
| GGGAGAAUUCCGACCAGAAGUAGUAGCCCGGGUGUGGGUUUAUGGUCGUCCCUUUCCUCUCUCCUUCCUCUUCU [P30-10-h1-7] | 17 |
| GGGAGAAUUCCGACCAGAAGGAACAUUUGUGGGUGGUGUGGGUGGCUGUUCCUUUCCUCUCUCCUUCCUCUUCU [P30-10-h1-9] | 832 |
| GGGAGAAUUCCGACCAGAAGGGUCGGUGUAUAAUUGUAGUUUUGUUGUUGUUGUUGUUGUUGCCUUUCCUCUCUCCUUCCUCUUCU [P30-10-h1-10] | 60.7 |
| GGGAGAAUUCCGACCAGAAGUAGUAGCCCGGGUGUGGGUUUAUGGUCGCCCCUUUCCUCUCUCCUUCCUCUUCU [P30-10-h1-1] | 47.9 |
| GGGAGAAUUCCGACCAGAAGGCGCGAUUGUGGUUGUGGUGGGUGGGCGCGCCUUUCCUCUCUCCUUCCUCUUCU [P30-10-h1-2] | 166 |
| GGAGCUCAGCCUUCACUGCCAAAGUGCGAGGCAGUGUGGUGCUGUCCUACGAGUUCUAAAGUUCGUUAGGAAGGCAGCUCAACAUGUUUAACAGGCACCACCGUCGGAUCC [D12] | 0.1 |
| GGGAGAAUUCCGACCAGAAGGCGCGAUUGUGUUGUGGUGGGUGGGCGCGCCUUUCCUCUCUCCUUCCUCUUCU [P30-10-h1-8] | 2.87 |
| GGGAGAAUUCCGACCAGAAGUGUCGAUGUGUAUCUUAUUUGUUUGUUUGUUUGUUUGUUUGUCCUUUCCUCUCUCCUUCCUCUUCU [P30-10-h1-3] | 37.3 |
| GGGAGAAUUCCGACCAGAAGUCCCCUCCCUCGUAUCGUAUGUGCGUUUGCCCUUUCCUCUCUCCUUCCUCUUCU [P30-10-h1-5] | 80.3 |
| GGGAGAAUUCCGACCAGAAGGCUAUGGGUUGAGUUCUGUAUGGGUGGGUGCCUUUCCUCUCUCCUUCCUCUUCU [P30-10-h1-4] | 232 |

same assay, conditions: 2'-F pyrimidines

| Sequence | binding signal [amol bound] |
| --- | --- |
| GGAGCUCAGCCUUCACUGCCAAAAAGUUAGGCCAGCAAAUUGCGAGCUGAUCCGGUGACUGGCUACAGGAGGCCUUGUCCACGGCCGUAUUGGCACCACCGUCGGAUCC [D26(2'-F)] | 32.8 |
